Experimental data published in patent publication US20100280227A1 (Genentech, published 2010).
Several values for one entry are separate records, joined by “and”; a condition that tells them apart may be missing. Identical values can stand only once.

Key:
[1] = molecular target: T1, human BR3 displayed on phage, V29 alanine-scan mutant (human, UniProt Q96RJ3 1-61, limits assumed); assay: shotgun alanine scan of phage-displayed BR3; F against wild type;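 also: Phage-displayed BR3 shotgun alanine libraries, two selection rounds for anti-BR3 antibody binding, normalized to a display selection, F above 1 marks a harmful substitution, below 1 a beneficial one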
T1 construct: One position of the shotgun alanine scan of BR3 on phage
Description: (§1) At the sites of mutation, wild-type codons were replaced with the corresponding shotgun alanine codon (Weiss, supra). […] Library 1 encoded shotgun codons at positions 17, 18, 20-23, 25, 27, 28, 30, and 33, while library 2 encoded shotgun codons at positions 26, 29, 31, 34, and 36-42. Each library contained 2×10⁹ members, allowing for complete representation of the theoretical diversity (>10⁴-fold excess).
(§2) The display selection was included in order to normalize the anti-BR3 antibody-binding selection for expression differences between library members. Phage eluted from each target were propagated in E. coli XL 1-blue; amplified phage were used for selection against the same target as in the previous round. After two rounds of selection, 48 individual clones from each library and selection were grown in a 96-well format in 400 L of 2YT medium supplemented with carbenicillin and KO7 helper phage.
(§3) F-values were calculated as previously described (Weiss, supra; Gordon, supra). […] Deleterious mutations have ratios >1, while advantageous mutations have ratios <1; boldface indicates a >10-fold effect.

[2] = molecular target: T2, human BR3 displayed on phage, R39 alanine-scan mutant (human, UniProt Q96RJ3 1-61, limits assumed); assay: as above
T2 construct: One position of the shotgun alanine scan of BR3 on phage
Description: as §1, §2, §3

[3] = molecular target: T3, human BR3 displayed on phage, P21 alanine-scan mutant (human, UniProt Q96RJ3 1-61, limits assumed); assay: as above
T3 construct: One position of the shotgun alanine scan of BR3 on phage
Description: as §1, §2, §3

[4] = molecular target: T4, human BR3 displayed on phage, R42 alanine-scan mutant (human, UniProt Q96RJ3 1-61, limits assumed); assay: as above
T4 construct: One position of the shotgun alanine scan of BR3 on phage
Description: as §1, §2, §3

[5] = molecular target: T5, human BR3 displayed on phage, L27 alanine-scan mutant (human, UniProt Q96RJ3 1-61, limits assumed); assay: as above
T5 construct: One position of the shotgun alanine scan of BR3 on phage
Description: as §1, §2, §3

[6] = molecular target: T6, human BR3 displayed on phage, P41 alanine-scan mutant (human, UniProt Q96RJ3 1-61, limits assumed); assay: as above
T6 construct: One position of the shotgun alanine scan of BR3 on phage
Description: as §1, §2, §3

[7] = molecular target: T7, human BR3 displayed on phage, R30 alanine-scan mutant (human, UniProt Q96RJ3 1-61, limits assumed); assay: as above
T7 construct: One position of the shotgun alanine scan of BR3 on phage
Description: as §1, §2, §3

[8] = molecular target: T8, human BR3 displayed on phage, T40 alanine-scan mutant (human, UniProt Q96RJ3 1-61, limits assumed); assay: as above
T8 construct: One position of the shotgun alanine scan of BR3 on phage
Description: as §1, §2, §3

[9] = molecular target: T9, human BR3 displayed on phage, D26 alanine-scan mutant (human, UniProt Q96RJ3 1-61, limits assumed); assay: as above
T9 construct: One position of the shotgun alanine scan of BR3 on phage
Description: as §1, §2, §3

[10] = molecular target: T10, human BR3 displayed on phage, T17 alanine-scan mutant (human, UniProt Q96RJ3 1-61, limits assumed); assay: as above
T10 construct: One position of the shotgun alanine scan of BR3 on phage; the F value gives the effect of this change against wild type; See m1 for the parent
Description: as §1, §2, §3

[11] = molecular target: T11, human BR3 displayed on phage, E23 alanine-scan mutant (human, UniProt Q96RJ3 1-61, limits assumed); assay: as above
T11 construct: One position of the shotgun alanine scan of BR3 on phage
Description: as §1, §2, §3

[12] = molecular target: T12, human BR3 displayed on phage, G36 alanine-scan mutant (human, UniProt Q96RJ3 1-61, limits assumed); assay: as above
T12 construct: One position of the shotgun alanine scan of BR3 on phage
Description: as §1, §2, §3

[13] = molecular target: T13, human BR3 displayed on phage, F25 alanine-scan mutant (human, UniProt Q96RJ3 1-61, limits assumed); assay: as above
T13 construct: One position of the shotgun alanine scan of BR3 on phage
Description: as §1, §2, §3

[14] = molecular target: T14, human BR3 displayed on phage, V20 alanine-scan mutant (human, UniProt Q96RJ3 1-61, limits assumed); assay: as above
T14 construct: One position of the shotgun alanine scan of BR3 on phage
Description: as §1, §2, §3

[15] = molecular target: T15, human BR3 displayed on phage, V33 alanine-scan mutant (human, UniProt Q96RJ3 1-61, limits assumed); assay: as above
T15 construct: One position of the shotgun alanine scan of BR3 on phage
Description: as §1, §2, §3

[16] = molecular target: human BR3 displayed on phage, mutated at A34 in the alanine scan (human, UniProt Q96RJ3 1-61, limits assumed); assay: as above
Description: as §1, §2, §3

[17] = molecular target: T16, human BR3 displayed on phage, L37 alanine-scan mutant (human, UniProt Q96RJ3 1-61, limits assumed); assay: as above
T16 construct: One position of the shotgun alanine scan of BR3 on phage
Description: as §1, §2, §3

[18] = molecular target: T17, human BR3 displayed on phage, L28 alanine-scan mutant (human, UniProt Q96RJ3 1-61, limits assumed); assay: as above
T17 construct: One position of the shotgun alanine scan of BR3 on phage
Description: as §1, §2, §3

[19] = molecular target: T18, human BR3 displayed on phage, L38 alanine-scan mutant (human, UniProt Q96RJ3 1-61, limits assumed); assay: as above
T18 construct: One position of the shotgun alanine scan of BR3 on phage
Description: as §1, §2, §3

[20] = molecular target: T19, human BR3 displayed on phage, P18 alanine-scan mutant (human, UniProt Q96RJ3 1-61, limits assumed); assay: as above
T19 construct: One position of the shotgun alanine scan of BR3 on phage
Description: as §1, §2, §3

[21] = molecular target: T20, human BR3 displayed on phage, H31 alanine-scan mutant (human, UniProt Q96RJ3 1-61, limits assumed); assay: as above
T20 construct: One position of the shotgun alanine scan of BR3 on phage
Description: as §1, §2, §3

[22] = molecular target: T21, human BR3 expressed on cells (human, UniProt Q96RJ3 1-184); assay: BJAB cells, competition with biotin-BAFF
T21 construct: whole, on cells; also called BR3 on BJAB cells; cell surface BR3
Protocol: (§4) The diluted samples were added to the pelleted BJAB cells in 96 well plates as described above. After 45 min incubation on ice, the cells were washed twice with 200 μl cold assay buffer, and streptavidin-HRP (AMDEX, Amersham Biosciences, Piscataway, N.J.) diluted 1/5,000 in assay buffer was added (100 μl/well). The plates were incubated for a final 45 min on ice. After washing twice with cold assay buffer, color was developed using TMB, the reaction was stopped with H₃PO₄, and the plates were read as described above.

[23] = molecular target: T22, variant human BR3-Fc fusion; assay: competition ELISA on vhBR3-Fc against biotinylated 11G9
T22 construct: produced in CHO cells; also called vBR3-Fc; vhBR3-Fc

[24] = molecular target: T21, human BR3 expressed on cells; assay: BJAB cell direct binding assay, anti-mouse IgG Fc-HRP
Protocol: For binding assays, cells were washed with cold assay buffer (phosphate buffered saline (PBS), pH 7.4) containing 1% fetal bovine serum (FBS)). […] The plates containing the cells were centrifuged at 1200 rpm for 5 min at 4° C., and the supernatant was carefully aspirated away from the cell pellets. […] For these experiments, full length antibodies (IgG) were used.
(§5) Direct and competitive binding assays were performed as follows. For the direct binding assay, IgG antibody samples were serially diluted in cold assay buffer to concentrations ranging between 300-0.02 nM. Samples (100 μl) were added to the pelleted cells, and the plates were incubated for 45 min on ice. An additional 100 μl assay buffer was then added to each well, and the plates were centrifuged at 1200 rpm for 5 min at 4° C. After carefully aspirating the supernatant, the cells were washed two additional times with 200 μl assay buffer. An anti-mouse IgG Fc-HRP or goat anti-human IgG Fc-HRP, as appropriate, was diluted 1/10,000 in cold assay buffer was added (100 μl/well, Jackson ImmunoResearch, West Grove, Pa.), and the plates were incubated on ice for 45 min. Following two washes with 200 μl cold assay buffer, tetramethyl benzidine (TMB, Kirkegaard & Perry Laboratories, Gaithersburg, Md.) was added, and color was allowed to develop for 10 min. One hundred microliters 1 M H₃PO₄ was added to stop the reaction. The plates were then read on a microplate reader at 450 nm with a 620 nm reference. In the direct binding assay, the indicated concentrations of mAbs were added to BJAB cells and bound mAb was detected.

[25] = molecular target: T21, human BR3 expressed on cells; assay: BJAB cell competitive binding assay against biotin-BAFF
Protocol: BJAB cells, a human Burkitt lymphoma cell line, were cultured in RPMI media supplemented with 10% FBS, penicillin (100 U/ml, Gibco-Invitrogen, Carlsbad, Calif.), streptomycin (100 μg/ml, Gibco), and L-glutamine (10 mM). […] For binding assays, cells were washed with cold assay buffer (phosphate buffered saline (PBS), pH 7.4) containing 1% fetal bovine serum (FBS)). […] The plates containing the cells were centrifuged at 1200 rpm for 5 min at 4° C., and the supernatant was carefully aspirated away from the cell pellets. […] For these experiments, full length antibodies (IgG) were used.
as §4

[26] = molecular target: T21, human BR3 expressed on cells; assay: BJAB cells, direct binding
Protocol: as §5

[27] = molecular target: T22, variant human BR3-Fc fusion; assay: competition ELISA on vhBR3-Fc against biotinylated 9.1
[28] = molecular target: T22, variant human BR3-Fc fusion; assay: SPR, vBR3-Fc on chip;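 also: Anti-BR3 antibodies passed over chip-bound BR3-Fc in PBS with 0.05% polysorbate 20, on and off rates fitted together globally to a 1:1 binding model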
Protocol: (§6) After coupling, unoccupied sites on the chip were blocked by injecting 20 μl of 1M ethanolamine, pH 8.5. The running buffer was PBS containing 0.05% polysorbate 20. […] The binding surface was regenerated by injecting 20-30 μl of 10 mM glycine.HCl (pH 1.5). […] Data were analyzed using a 1:1 binding model using global fitting. The association and dissociation rate constants were fitted simultaneously (BIAevaluation software).
(§7) A high flow rate was used in order to minimize mass transport effects.

[29] = molecular target: T23, human BAFF (residues 82-285) (human, UniProt Q9Y275 82-285); assay: BJAB cell competitive binding assay: soluble BR3-Fc keeps biotin-BAFF from BR3 on the cells
T23 construct: range 82-285; also called biotin-BAFF; biotinylated BAFF

[30] = molecular target: T24, human BR3 extracellular domain (human, UniProt Q96RJ3 1-61); assay: SPR, IgG on chip, BR3 ECD in solution
T24 construct: biotinylated where used as tracer; also called hBR3-ECD; BR3-ECD

[31] = molecular target: human BR3 displayed on phage, mutated at A22 in the alanine scan (human, UniProt Q96RJ3 1-61, limits assumed); assay: shotgun alanine scan of phage-displayed BR3; F against wild type;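 also: Phage-displayed BR3 shotgun alanine libraries, two selection rounds for anti-BR3 antibody binding, normalized to a display selection, F above 1 marks a harmful substitution, below 1 a beneficial one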
Description: as §1, §2, §3

[32] = molecular target: T24, human BR3 extracellular domain; assay: SPR, BR3 ECD on chip;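 also: Anti-BR3 antibodies passed over the chip at high flow in PBS with 0.05% polysorbate 20, on and off rates fitted together globally to a 1:1 binding model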
Protocol: as §6, §7

[33] = molecular target: T22, variant human BR3-Fc fusion; assay: competition ELISA on vhBR3-Fc against biotinylated 2.1

T23 sequence (Q9Y275 82-285 limits assumed): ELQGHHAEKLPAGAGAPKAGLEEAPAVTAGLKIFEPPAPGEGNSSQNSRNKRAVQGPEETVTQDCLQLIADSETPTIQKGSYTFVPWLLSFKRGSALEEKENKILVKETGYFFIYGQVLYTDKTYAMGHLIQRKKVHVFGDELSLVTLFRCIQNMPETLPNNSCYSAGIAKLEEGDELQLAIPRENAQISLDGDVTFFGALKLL

Binder	F value [1]	F value [2]	F value [3]	F value [4]	F value [5]	F value [6]	F value [7]	F value [8]	F value [9]	F value [10]	F value [11]	F value [13]	F value [14]	F value [16]	F value [17]	F value [18]	F value [19]	IC50 [22]	IC50 (read off the curve) [23]	EC50 [26]	further results
murine monoclonal antibody 11G9 (antibody, V domains shown, mouse hybridoma IgG; also called mu11G9) VH: DVQLQESGPSLVKPSQTLSLTCSVTGDSITSGYWNWIRKFPGNKLEYMGYISYSGSTYYNPSLKSRISITRDTSKNQFYLQLLSVTTEDTATYYCAGLDGLYWYFDVWGAGTLVTVSS VL: DIVMTQTPLSLPVSLGDQASISCRSSQSLVHSNGNTYLHWYLQKPGQSPKLLIYKVSNRFSGVPDRFSGSGSGTDFTLKISRVEAEDLGVYFCSQSTHVPPFTFGSGT	1	3.1	40	0.9	1.1	1.7	1.7	0.5	8.5	0.5	6.9	38	1.1	32	0.7	0.4	0.9	380 pM	~0.2 µg/mL	190 pM	F value [12]: 1.8; F value [15]: 24; F value [20]: 0.5; F value [21]: 2.8; EC50 [24]: 170 pM; IC50 [25]: 290 pM
mouse BR3-Fc (Fc fusion, (BR3 ECD fused to a murine Fc); also called mBR3-Fc; murine BR3-Fc) STGARRLRVRSQRSRDSSVPTQCNQTECFDPLVRNCVSCELFHTPDTGHTSSLEPGTALQPQEGQVTGDKKIVPRDCGCKPCICTVPEVSSVFIFPPKPKDVLTITLTPKVTCVVVDISKDDPEVQFSWFVDDVEVHTAQTQPREEQFNSTFRSVSELPIMHQDWLNGKEFKCRVNSAAFPAPIEKTISKTKGRPKAPQVYTIPPPKEQMAKDKVSLTCMITDFFPEDITVEWQWNGQPAENYKNTQPIMNTNGSYFVYSKLNVQKSNWEAGNTFTCSVLHEGLHNHHTEKSLSHSPGK	–	–	–	–	–	–	–	–	–	–	–	–	–	–	–	–	–	–	–	–	IC50 [29]: 12700 pM; binding result [24]: no binding (tested: about 35 ng/ml as the axis is labelled)

More lines, in order of falling IC50 [22], values ahead:

F value [1]	F value [2]	F value [3]	F value [4]	F value [5]	F value [6]	F value [7]	F value [8]	F value [9]	F value [10]	F value [11]	F value [13]	F value [14]	F value [16]	F value [17]	F value [18]	F value [19]	IC50 [22]	IC50 (read off the curve) [23]	EC50 [26]	Binder	further results
–	–	–	–	–	–	–	–	–	–	–	–	–	–	–	–	–	1300 pM	~0.1 µg/mL	540 pM	murine monoclonal antibody 9.1 (antibody, V domains shown, mouse hybridoma IgG; also called 9.1 IgG; mu9.1) VH: EVKLVESGGGLVQPGGSLRLSCAISGFTVTAYYMSWVRQPPGKALEWLGFIRDKANGYTTEYNPSVKGRFTISRDNSQSIFYLQMNTLRAEDSATYYCAQVRRALDYWGQGTTVTVSA VL: DIVMSQSPSSLAVSVGEKVTMSCKSSQSLLYSSNQNNYLAWYQQKPGQSPKLLIYWASTRESGVPDRFTGSGSGTDFTLTISSVKAEDLAVYYCQQYYTYPYTFGGGT	IC50 (read off the curve) [27]: ~0.6 µg/mL; EC50 [24]: 460 pM; IC50 [25]: 860 pM; Kd [28]: 610 pM
0.5	0.5	1.9	1.8	0.8	0.7	10	0.2	6.1	0.6	9.6	49	3	62	0.1	0.1	0.9	250 pM	~0.1 µg/mL	160 pM	murine monoclonal antibody 2.1 (antibody, V domains shown, mouse hybridoma IgG; also called 2.1 IgG; mu2.1) VH: EVQLQESGPSLVKPSQTLSLTCSVTGDSITRGYWNWIRKFPGNKLEFMGYINYSGTTYYNPSLKSRISITRDTSKNQYYLQLNSVTTEDTATYYCATPHTYGAMDYWGQGTTLTVSA VL: DIVLTQSPVSLAVSLGQRATISCRASESVDDYGISFMHWYQQKPGQPPKLLIYRASDLESGIPARFSGSGSGTDFTLTINPVETDDVAIYYCQQTSKDPWTFGGGT	Kd [30]: 150 pM; koff [30]: 1.7e-05 s⁻¹; kon [30]: 110000 M⁻¹ s⁻¹; F value [31]: 3.2; F value [20]: 0.5; F value [21]: 0.6; Kd [32]: 50 pM; koff [32]: 5.2e-05 s⁻¹; kon [32]: 960000 M⁻¹ s⁻¹; Kd [28]: 80 pM and 70 pM; koff [28]: 3.4e-05 s⁻¹ and 3.3e-05 s⁻¹; kon [28]: 440000 M⁻¹ s⁻¹ and 470000 M⁻¹ s⁻¹; IC50 (read off the curve) [33]: ~0.6 µg/mL
